We go through three molecules from US10022453B2 (BAYER PHARMA AKTIENGESELLSCHAFT, priority 2013, dated 2018).

One data set deals with Caco-2 cells. The data set is described as follows: Cell permeability, flux assay using Caco-2 cells.
Data set [1] has as its target T1, recombinant human TWEAKR protein (TPP-2305) (Homo sapiens, UniProt Q9NP84).
T1 construct: purchased Fitzgerald Inc 30R-AT080
The data set is described as follows: Binding affinities by Biacore analysis. Conditions: monovalent. The procedure: Determination of Binding Affinities by Biacore Analysis:
Binding affinities of anti-TWEAKR antibodies were examined using surface plasmon resonance analysis on a Biacore T100 instrument (GE Healthcare Biacore, Inc.). The antibodies were immobilized on a CM5 sensor chip using an indirect capture reagent, anti-human IgG(Fc). […] Anti-TWEAKR antibodies were injected at a concentration of 10 μg/ml at […] for 10 sec.
Sensorgrams were generated after in-line reference cell correction, followed by subtraction of the buffer sample. The dissociation constant (KD) was calculated based on the ratio of association (kon) and dissociation (koff) constants, obtained by fitting sensorgrams using a 1:1 first order binding model.
For orientation: In SPR one partner is held on a chip, and binding of the other changes the refractive index at the surface.

For another data set, the target named is T2, TWEAKR-Fc WT (TPP-599) (Homo sapiens, UniProt Q9NP84).
T2 construct: hTNFRSF12 amino acids a28-80-hIgG1-Fc
The data set is described as follows: ELISA, effect of TWEAKR-Fc muteins on antibody binding. Conditions: 62 ng/ml TWEAKR-Fc coated, biotinylated IgG from 100 nM. The procedure:
(§1) Effect of TWEAKR-Fc Muteins on the Antibody Affinity
(§2) To this end, the full-length ectodomain (amino acids 28-80) having the individual amino acid substitutions below were expressed and purified as Fc fusion proteins: T33Q; S40R; W42A; M50A; R56P; H60K; L65Q.
(§3) Detection was carried out using streptavidin-HRP and Amplex Red.
(§4) The dose-reaction data were fitted and the IC50s were determined.
(In an ELISA, binding on a coated surface is turned into a signal by an enzyme label.)

Another data set has as its target T3, TWEAKR-Fc mutein H60K (Homo sapiens, UniProt Q9NP84, H60K).
T3 construct: the full-length ectodomain (amino acids 28-80); made in house
Described as above. As to conditions: 62 ng/ml mutein coated, biotinylated IgG from 100 nM. The procedure: as §1, §2, §3, §4

A further data set deals with T4, TWEAKR-Fc mutein L65Q (Homo sapiens, UniProt Q9NP84, L65Q).
T4 construct: the full-length ectodomain (amino acids 28-80); made in house
Described as above. Conditions: 62 ng/ml mutein coated, biotinylated IgG from 100 nM. The procedure: as §1, §2, §3, §4

Another data set has as its target T5, TWEAKR-Fc mutein M50A (Homo sapiens, UniProt Q9NP84, M50A).
T5 construct: the full-length ectodomain (amino acids 28-80); made in house
The data set is described as above. Conditions: 62 ng/ml mutein coated, biotinylated IgG from 100 nM. As for the experimental part: as §1, §2, §3, §4

In a further data set the target is T6, TWEAKR-Fc mutein R56P (Homo sapiens, UniProt Q9NP84, R56P).
T6 construct: the full-length ectodomain (amino acids 28-80); made in house
The description is as above. As to conditions: 62 ng/ml mutein coated, biotinylated IgG from 100 nM. As for the experimental part:
as §1, §2, §3, §4

A further data set has as its target T7, TWEAKR-Fc mutein S40R (Homo sapiens, UniProt Q9NP84, S40R).
T7 construct: the full-length ectodomain (amino acids 28-80); made in house
The data set is described as above. As to conditions: 62 ng/ml mutein coated, biotinylated IgG from 100 nM. As for the experimental part: as §1, §2, §3, §4

The next data set addresses T8, TWEAKR-Fc mutein T33Q (Homo sapiens, UniProt Q9NP84, T33Q).
T8 construct: the full-length ectodomain (amino acids 28-80); made in house
Described as above. Conditions: 62 ng/ml mutein coated, biotinylated IgG from 100 nM. The procedure:
as §1, §2, §3, §4

In the next data set the target is T9, TWEAKR-Fc mutein W42A (Homo sapiens, UniProt Q9NP84, W42A).
T9 construct: the full-length ectodomain (amino acids 28-80); made in house
The description is as above. Conditions: 62 ng/ml mutein coated, biotinylated IgG from 100 nM. As for the experimental part:
as §1, §2, §3, §4

Data set [2] addresses T1, recombinant human TWEAKR protein (TPP-2305). As to conditions: published data (WO2009/020933, WO2009/140177, literature); cited from earlier work.

Changes are numbered by the printed parent chain.

In the case of `CC(C)(C)[C@H](c1nn(-c2cc(F)ccc2F)cc1Cc1ccccc1)N(CC[C@H](N)C(=O)NCCC(=O)NCCN1C(=O)CC(SC[C@H](N)C(=O)O)C1=O)C(=O)CO.O=C(O)C(F)(F)F` (some centres unmarked) [Example 92], the “Papp (B-A)” value with Caco-2 cells (Caco-2, 2 hours) was found to be 0.4 ×10⁻⁶ cm/s. For the same molecule, the Efflux ratio in the data set on Caco-2 cells (Papp (B-A) to Papp (A-B), Caco-2) came to 3.

B1: 18.3.3(TPP-2193): comparative anti-TWEAKR antibody; variable domains from WO2009/020933, constant region added, "resulting in full-length IgGs" (protein)
light: DIVLTQSPASLAVSLGQRATISCKASQSVSTSTYSYMQWYQQRPGQSPKLLIKYASKLDSGVPARFSGSGSGTDFTLNIHPVEEEDTATYYCQHSWELPYTFGGGTRLEIKRADAAPTVSIFPPSSEQLTSGGASVVCFLNNFYPKDINVKWKIDGSERQNGVLNSWTDQDSKDSTYSMSSTLTLTKDEYERHNSYTCEATHKTSTSPIVKSFNRNEC
heavy: EVKLGESGGGLVQPGGSMKLSCVASGFPFTKYWMNWVRQSPEKGLEWVAEIRLKSDNYATHYAESAKGRFTISRDDSRSSVYLQMNNLRAEDTAIYYCSPTYADTMDYWGQGTSVTVSSAKTTAPSVYPLAPVCGDTTGSSVTLGCLVKGYFPEPVTLTWNSGSLSSGVHTFPAVLQSDLYTLSSSVTVTSSTWPSQSITCNVAHPASSTKVDKKIEPRGPTIKPCPPCKCPAPNLLGGPSVFIFPPKIKDVLMISLSPIVTCVVVDVSEDDPDVQISWFVNNVEVHTAQTQTHREDYNSTLRVVSALPIQHQDWMSGKEFKCKVNNKDLPAPIERTISKPKGSVRAPQVYVLPPPEEEMTKKQVTLTCMVTDFMPEDIYVEWTNNGKTELNYKNTEPVLDSDGSYFMYSKLRVEKKNWVERNSYSCSVVHEGLHNHHTTKSFSRTPG
modifications: Mus Musculus
As usually defined, the IC50 is the point on the concentration scale where inhibition reaches its midpoint. The term Kd denotes the equilibrium constant for the complex coming apart. Regarding B1, the “ka” value in data set [1] turned out to be 1.64e+07 M⁻¹ s⁻¹. Moreover, the “kd” value in [1] amounted to 0.0285 s⁻¹. Moreover, the IC50 with TWEAKR-Fc WT (TPP-599) was 1 to 150 pM; with TWEAKR-Fc mutein H60K, 1 to 150 pM; with TWEAKR-Fc mutein L65Q, 1 to 150 pM; with TWEAKR-Fc mutein M50A, 1 to 150 pM; in the data set with TWEAKR-Fc mutein R56P, above 50000 pM; with TWEAKR-Fc mutein S40R it was 1 to 150 pM. In addition, the 50% inhibitory concentration (IC50) was 1 to 150 pM with TWEAKR-Fc mutein T33Q and above 50000 pM with TWEAKR-Fc mutein W42A. Besides, the Kd in [2] was 200 pM.

B2: 136.1: "agonistic antibodies already described [e.g. PDL-192(TPP-1104), P4A8(TPP-1324), 136.1(TPP-2194)]" (protein)
light: B1 light with A12T, K24R, T33S, S47P, S56T, K57N, T87A, L98I, R107K
heavy: EVKLEESGGGLVQPGGSMKLSCVASGFTFNNYWMSWVRQSPEKGLEWLAEIRLKSDNYATHYAESVKGKFTISRDDSKSRLYLQMNNLRAENTGIYYCTGGFADYFDYWGQGTTLTVSSAKTTAPSVYPLAPVCGDTTGSSVTLGCLVKGYFPEPVTLTWNSGSLSSGVHTFPAVLQSDLYTLSSSVTVTSSTWPSQSITCNVAHPASSTKVDKKIEPRGPTIKPCPPCKCPAPNLLGGPSVFIFPPKIKDVLMISLSPIVTCVVVDVSEDDPDVQISWFVNNVEVHTAQTQTHREDYNSTLRVVSALPIQHQDWMSGKEFKCKVNNKDLPAPIERTISKPKGSVRAPQVYVLPPPEEEMTKKQVTLTCMVTDFMPEDIYVEWTNNGKTELNYKNTEPVLDSDGSYFMYSKLRVEKKNWVERNSYSCSVVHEGLHNHHTTKSFSRTPG
modifications: Mus Musculus
Turning to B2, the dissociation constant Kd in [2] is 700 pM.
